The record followed here is patent US9081017 (CAMBRIDGE ENTERPRISE, dated 2015).

This test has as its target T1, TRAF2 (mouse, endogenous) (mouse, UniProt P39429 2-501).
T1 construct: Endogenous protein; also called TNF-receptor associated factor 2
T1 sequence (looked up): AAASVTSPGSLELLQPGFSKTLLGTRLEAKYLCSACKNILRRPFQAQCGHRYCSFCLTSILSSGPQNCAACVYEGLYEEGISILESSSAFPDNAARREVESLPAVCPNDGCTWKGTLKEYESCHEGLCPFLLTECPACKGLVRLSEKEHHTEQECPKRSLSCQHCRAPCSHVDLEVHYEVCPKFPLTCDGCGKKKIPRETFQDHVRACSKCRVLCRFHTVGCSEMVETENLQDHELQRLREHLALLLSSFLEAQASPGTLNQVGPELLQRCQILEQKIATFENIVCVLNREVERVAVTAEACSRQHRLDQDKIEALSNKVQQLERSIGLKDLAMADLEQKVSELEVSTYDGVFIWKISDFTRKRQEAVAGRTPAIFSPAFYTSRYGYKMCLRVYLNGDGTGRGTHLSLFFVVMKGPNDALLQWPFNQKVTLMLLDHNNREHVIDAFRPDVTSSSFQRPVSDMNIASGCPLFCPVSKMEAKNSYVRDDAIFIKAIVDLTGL
The experiment in a line: co-immunoprecipitation from ischemic hindlimb muscle of C57BL/6 mice.

B1: TNFR2 (mouse, endogenous in hindlimb muscle of C57BL/6 mice) (receptor, UniProt P25119 23-474, looked up)
chain: VPAQVVLTPYKPEPGYECQISQEYYDRKAQMCCAKCPPGQYVKHFCNKTSDTVCADCEASMYTQVWNQFRTCLSCSSSCTTDQVEIRACTKQQNRVCACEAGRYCALKTHSGSCRQCMRLSKCGPGFGVASSRAPNGNVLCKACAPGTFSDTTSSTDVCRPHRICSILAIPGNASTDAVCAPESPTLSAIPRTLYVSQPEPTRSQPLDQEPGPSQTPSILTSLGSTPIIEQSTKGGISLPIGLIVGVTSLGLLMLGLVNCIILVQRKKKPSCLQRDAKVPHVPDEKSQDAVGLEQQHLLTTAPSSSSSSLESSASAGDRRAPPGGHPQARVMAEAQGFQEARASSRISDSSHGSHGTHVNVTCIVNVCSSSDHSSQCSSQASATVGDPDAKPSASPKDEQVPFSQEECPSQSPCETTETLQSHEKPLPLGVPDMGMKPSQAGWFDQIAVKVA
notes: Endogenous protein immunoprecipitated from muscle tissue; also called tumor necrosis factor receptor 2
As to B1, the binding result is “binds”.
